In patent publication US20210277100A1 (SCHOLAR ROCK, published 2021):

T1: TGFβ3 growth factor (UniProt P10600 301-412)
T1 construct: domain: growth factor
T1 sequence (looked up): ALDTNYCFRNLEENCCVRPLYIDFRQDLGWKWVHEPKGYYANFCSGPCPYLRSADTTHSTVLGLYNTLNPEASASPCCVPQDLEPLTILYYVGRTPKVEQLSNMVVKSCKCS

T2: TGFβ2 growth factor (UniProt P61812 303-414)
T2 construct: domain: growth factor
T2 sequence (looked up): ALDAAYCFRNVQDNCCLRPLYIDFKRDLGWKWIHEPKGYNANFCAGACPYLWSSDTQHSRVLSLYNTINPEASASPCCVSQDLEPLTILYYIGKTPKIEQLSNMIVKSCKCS


Legend:
hGARP-TGFβ1-LAP = target: T3, hGARP-TGFβ1-LAP (human); experiment: biolayer interferometry (OctetRed 384)
T3 construct: not given
Procedure: (§1) The binding affinities of the proTGFβ1-GARP complex-selective antibody candidates to proTGFβ1-GARP complexes were measured by biolayer interferometry on an OctetRed 384 (Fortebio, Menlo Park, Calif.). Strepavidin biosensors (Fortebio, Cat. No. 18-5020) were loaded with biotinylated sGARP-proTGFβ1 complex at 20 μg/ml in sodium acetate buffer, pH 5, washed in the same buffer and transferred to wells containing 10 μg/mL proTGFβ1-GARP complex-selective antibody candidates in the same buffer. The dissociation constant was obtained by non-linear fitting of the responses to a steady state algorithm using Octet software (Table 4). Similar affinities were obtained by kinetic fitting.
(§2) proTGFβ1-GARP complex-selective antibody candidates were measured by biolayer interferometry on an OctetRed 384 (Fortebio, Menlo Park, Calif.) for selectivity for proTGFβ1-GARP complex over other protein complexes (FIG. 4).

rGARP-proTGFβ1 = target: T4, rGARP-proTGFβ1; experiment: biolayer interferometry (OctetRed 384)
T4 construct: not given
Procedure: as §1, §2

TGFβ1 growth factor [1] = target: T5, TGFβ1 growth factor (human, UniProt P01137 279-390); experiment: BLI, OctetRed 384, antigen loaded on biosensor
T5 construct: domain: growth factor; also called TGFb1 (soluble form)
Procedure: as §1
(§3) To ascertain binding specificity, 4B1C1 and 4B16B9 were screened as above for binding to TGFβ1, TGFβ2, TGFβ3, proTGFβ1-LTBP1, proTGFβ1-LTBP3 and proTGFβ1-LRRC33. As described above, antibodies were tested at 10 μg/ml and antigens at 20 μg/ml and tested under the following conditions.

TGFβ3 growth factor = target: T1, TGFβ3 growth factor; experiment: BLI, OctetRed 384 (FIG. 4)
Procedure: as §1, §3, §2

TGFβ2 growth factor = target: T2, TGFβ2 growth factor; experiment: BLI, OctetRed 384 (FIG. 4)
Procedure: as §1, §3, §2

[2] = target: human proTGFβ1 in complex with GARP expressed on transfected HEK293 or Sw480 cells (human, UniProt Q14392 20-662; P01137 30-390); experiment: cell-based or functional assay
TGFβ1 growth factor [3] = target: T5, TGFβ1 growth factor; experiment: BLI, OctetRed 384 (FIG. 4)
Procedure: as §1, §3, §2

Chain of human proTGFβ1 in complex with GARP expressed on transfected HEK293 or Sw480 cells (Q14392 20-662, chain 1 of 2): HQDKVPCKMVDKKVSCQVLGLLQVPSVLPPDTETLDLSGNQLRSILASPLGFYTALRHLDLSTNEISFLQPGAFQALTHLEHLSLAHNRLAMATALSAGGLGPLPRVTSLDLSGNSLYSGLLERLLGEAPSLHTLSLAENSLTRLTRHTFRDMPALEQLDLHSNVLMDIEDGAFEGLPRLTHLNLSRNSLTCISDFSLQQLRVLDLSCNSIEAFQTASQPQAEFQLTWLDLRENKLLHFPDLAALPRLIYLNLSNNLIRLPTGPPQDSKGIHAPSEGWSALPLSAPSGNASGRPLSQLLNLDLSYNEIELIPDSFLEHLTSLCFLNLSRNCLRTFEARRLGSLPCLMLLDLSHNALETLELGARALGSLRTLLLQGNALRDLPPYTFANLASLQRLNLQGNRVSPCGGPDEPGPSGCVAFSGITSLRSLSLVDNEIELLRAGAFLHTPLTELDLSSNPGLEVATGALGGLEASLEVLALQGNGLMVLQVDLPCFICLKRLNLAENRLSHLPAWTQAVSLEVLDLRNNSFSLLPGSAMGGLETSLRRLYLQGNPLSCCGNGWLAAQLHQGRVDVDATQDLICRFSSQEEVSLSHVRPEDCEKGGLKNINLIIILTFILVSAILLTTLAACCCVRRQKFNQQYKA
Chain of human proTGFβ1 in complex with GARP expressed on transfected HEK293 or Sw480 cells (P01137 30-390, chain 2 of 2): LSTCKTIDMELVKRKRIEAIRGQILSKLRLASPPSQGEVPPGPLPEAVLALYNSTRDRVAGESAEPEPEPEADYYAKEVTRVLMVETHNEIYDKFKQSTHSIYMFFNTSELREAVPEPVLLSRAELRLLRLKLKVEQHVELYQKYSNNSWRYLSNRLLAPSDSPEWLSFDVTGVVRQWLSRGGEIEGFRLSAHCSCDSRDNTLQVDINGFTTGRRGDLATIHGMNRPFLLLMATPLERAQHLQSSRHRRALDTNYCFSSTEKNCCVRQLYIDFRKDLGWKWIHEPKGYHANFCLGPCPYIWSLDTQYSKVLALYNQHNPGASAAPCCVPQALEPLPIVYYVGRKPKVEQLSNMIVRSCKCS
T5 sequence (P01137 279-390 limits assumed): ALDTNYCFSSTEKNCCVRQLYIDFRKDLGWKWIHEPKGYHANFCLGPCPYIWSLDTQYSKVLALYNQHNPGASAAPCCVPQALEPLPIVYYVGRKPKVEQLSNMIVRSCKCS
T3 sequence (Q14392 20-627, chain 1 of 2): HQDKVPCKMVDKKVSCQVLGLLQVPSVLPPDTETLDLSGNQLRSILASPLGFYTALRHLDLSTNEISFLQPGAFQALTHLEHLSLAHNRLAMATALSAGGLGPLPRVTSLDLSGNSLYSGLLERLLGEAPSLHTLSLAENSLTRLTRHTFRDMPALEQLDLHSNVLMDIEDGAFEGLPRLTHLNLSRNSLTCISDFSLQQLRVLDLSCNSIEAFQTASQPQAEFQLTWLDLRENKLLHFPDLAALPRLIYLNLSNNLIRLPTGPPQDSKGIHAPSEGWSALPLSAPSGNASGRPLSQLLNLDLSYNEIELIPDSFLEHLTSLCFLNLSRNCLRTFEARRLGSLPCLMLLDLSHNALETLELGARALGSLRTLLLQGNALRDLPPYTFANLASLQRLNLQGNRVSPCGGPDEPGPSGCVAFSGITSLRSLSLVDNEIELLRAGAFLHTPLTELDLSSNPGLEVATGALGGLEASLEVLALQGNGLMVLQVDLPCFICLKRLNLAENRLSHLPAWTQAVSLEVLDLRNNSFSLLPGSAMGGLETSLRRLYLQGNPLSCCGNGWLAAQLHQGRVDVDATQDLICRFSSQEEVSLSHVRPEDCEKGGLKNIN
T3 sequence (P01137 30-390, chain 2 of 2, further chain): as the sequence (P01137 30-390, chain 2 of 2) above

| Binder | Kd (hGARP-TGFβ1-LAP) | Kd (rGARP-proTGFβ1) | binding result (TGFβ1 growth factor [1]) | binding result (TGFβ3 growth factor) | binding result (TGFβ2 growth factor) | IC50 of inhibition of TGFβ1 activation, TMLC reporter cells [2] | binding result (TGFβ1 growth factor [3]) |
| --- | --- | --- | --- | --- | --- | --- | --- |
| 4B1C1 (antibody, human IgG4 S228P, kappa, V domains shown, Fully human, from a phage display scFv; also called 4B1Cl; proTGFβ1-GARP complex-selective antibody candidate) VH: EVQLVQSGGVVVQPGGSLRLSCAASGFTFDDYTMHWVRQAPGKGLEWVSLISWDGGSTYYADSVKGRFTISRDNSKNSLYLQMNSLRTEDTALYYCAKDADDSTFDIWGQGTMVTVSS VL: ETTLTQSPATLSVSPGERVTLSCRASQSVSRNLAWYQQKPGQPPKLLIYWASTRESGVPDRFSGSGSGTDFTLTISSLQAEDVAVYYCQQYYSVPYTFGQGTKLEIKR | 11300 pM | 187 pM | no binding | no binding | no binding | 178 pM |  |
| 4B16B9 (antibody, human IgG4 S228P, lambda, V domains shown, Fully human, from a phage display scFv; also called proTGFβ1-GARP complex-selective antibody candidate) VH: QMQLVQSGAEVKKPGSSVKVSCKASGGTFSSYAISWVRQAPGQGLEWMGGIIPMFGTTNYAQKFQGRVTIIADESTSTAYMELRSLRSDDTAVYYCARDREWEPAYGMDVWGQGTTVTVSS VL: QSALTQPASVSGSPGQSITISCIGTSSDVGGYNYVSWYQQHPGKAPKLMIYDVSNRPSGVSNRFSGSKSGNTASLTISGLQAEDEAMYYCSAYTVSSTWVFGGGTKVTVLG |  | 158 pM |  | no binding | no binding | 1900 pM | no binding |
